In patent US20180256645A1:

Molecular target: murine/mouse full length CXCR6 (chemokine receptor 6), expressed on transduced murine CD8+ T cells (murine/mouse) (UniProt Q9EQ16)
Experiment: cell-based or functional assay

Chain of UniProt Q9EQ16 (Q9EQ16 1-350): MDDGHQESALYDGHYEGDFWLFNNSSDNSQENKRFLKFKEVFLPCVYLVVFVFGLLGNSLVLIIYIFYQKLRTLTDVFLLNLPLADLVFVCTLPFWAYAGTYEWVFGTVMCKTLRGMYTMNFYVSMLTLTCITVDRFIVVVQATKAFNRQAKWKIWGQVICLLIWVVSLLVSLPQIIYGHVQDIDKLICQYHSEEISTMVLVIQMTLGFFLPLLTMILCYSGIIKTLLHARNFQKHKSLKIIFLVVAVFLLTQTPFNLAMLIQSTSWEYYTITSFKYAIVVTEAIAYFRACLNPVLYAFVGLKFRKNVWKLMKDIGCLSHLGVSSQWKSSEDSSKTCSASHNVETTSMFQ

Question: Which internalisation and recycling of CXCR6 (live confocal fluorescence microscopy) does the source give for “recombinant CXCL16 (SEQ ID NO: 9) (Peprotech, Hamburg) (from UniProt Q8BSU2 27-114) (ligand)” here?
Answer: 30 min
